Tested on: control human primary myoblasts
Assay: Expression microarray of primary myoblasts transduced with lentivirus carrying DUX4-fl, DUX4-s or GFP
Procedure: Primary human myoblasts were collected and cultured as previously described (Snider et al., 2010). Primary myoblasts were maintained at or below 70% confluency for proliferation. For differentiation, cells were allowed to reach 95-100% confluency in growth medium. Once confluency was reached, the cells were changed to differentiation medium (F10 media supplemented with 1% horse serum, 10 μg/mL insulin, and 10 μg/mL transferrin, penicillin/streptomycin) and maintained for 4 days. Human RD cells were grown in DMEM in 10% bovine calf serum (Hyclone) and penicillin/streptomycin. The primary myoblasts were transduced with lentivirus carrying DUX-fl, DUX4- or GFP (MOI=15).
Expression microarrays were performed on the transduced cells at 24 hours after transduction as follows. […] Samples were analyzed by Illumina Human Whole Genome microarrays. Probe intensities were corrected, normalized, and summarized by the Lumi package of Bioconductor (Du et al., 2008). Differentially expressed genes were identified by the LIMMA package of Bioconductor (Wettenhall and Smyth, 2004). Gene set enrichment analysis (GSEA) was performed using the Bioconductor GOstats package (Falcon and Gentleman, 2007).

B1: DUX4-s: short splice form of DUX4 (SEQ ID NO:112), keeps the double-homeobox domains, lacks the C-terminal activation domain (protein, listed as Homo sapiens)
chain: MALPTPSDSTLPAEARGRGRRRRLVWTPSQSEALRACFERNPYPGIATRERLAQAIGIPEPRVQIWFQNERSRQLRQHRRESRPWPGRRGPPEGRRKRTAVTGSQTALLLRAFEKDRFPGIAAREELARETGLPESRIQIWFQNRRARHPGQGGRAPAQV
Refseq NM_016343.3
  fc of CENPF (expression array): −1.028
Refseq NM_016403.3
  CWC15 expression fc: 0.09338
Refseq NM_016456.2
  fc of TMEM9 (expression array): −0.2052
Refseq NM_016577.3
  RAB6B expression fc: 0.007069
Refseq NM_016582.1, cultured human skeletal muscle
  SLC15A3 expression fc: 0.7755
Refseq NM_016594.1
  FKBP11 fc: 0.3006
Refseq NM_016608.1
  ARMCX1 fc: −0.06031
Refseq NM_016647.2
  C8orf55 fc: −0.387
Refseq NM_017410.2
  HOXC13 fc: 0.444
Refseq NM_017414.3, cultured human skeletal muscle
  USP18 expression fc: 0.996
Refseq NM_017554.1, cultured human skeletal muscle
  PARP14 expression fc: 0.5211
Refseq NM_017611.2
  fc of SLC43A3 (expression array): 0.4376
Refseq NM_017617.3
  NOTCH1 fc: −0.6695
Refseq NM_017641.2
  KIF21A expression fc: 0.01529
Refseq NM_017651.3
  fc of AHI1 (expression array): −1.054
Refseq NM_017654.2, cultured human skeletal muscle
  SAMD9 expression fc: 1.399
Refseq NM_017709.3
  FAM46C expression fc: −0.1289
Refseq NM_017750.2, cultured human skeletal muscle
  RETSAT expression fc: −0.1731
Refseq NM_017816.1
  LYAR expression fc: 0.000875
Refseq NM_017894.4
  ZSCAN2 expression fc: −0.1999
Refseq NM_017912.3, cultured human skeletal muscle
  HERC6 expression fc: 0.5237
Refseq NM_017933.3
  PID1 fc: 0.314
Refseq NM_017953.2
  ZNHIT6 expression fc: 0.3265
Refseq NM_017970.2
  C14orf102 expression fc: 0.1769
Refseq NM_017983.4
  fc of WIPI1 (expression array): 0.07989
Refseq NM_017999.4
  RNF31 fc: 0.05142
Refseq NM_018027.3
  FRMD4A fc: −0.5453
Refseq NM_018088.3
  FAM90A1 expression fc: 0.02937
Refseq NM_018107.4
  fc of RBM23 (expression array): −0.07729
Refseq NM_018129.2
  PNPO fc: −0.02588
Refseq NM_018144.2
  SEC61A2 expression fc: 0.209
Refseq NM_018161.4
  NADSYN1 fc: 0.1182
Refseq NM_018295.2, cultured human skeletal muscle
  TMEM140 expression fc: 1.003
Refseq NM_018321.3
  BRIX1 expression fc: 0.2991
Refseq NM_018370.2
  DRAM1 fc: −0.3649
Refseq NM_018385.1
  LSG1 expression fc: −0.06468
Refseq NM_018421.2
  TBC1D2 fc: 0.2926
Refseq NM_018427.3
  RRN3 expression fc: 0.1072
Refseq NM_018443.2
  ZNF302 fc: −0.01005
Refseq NM_018446.2
  fc of GLT8D1 (expression array): −0.2715
Refseq NM_018476.3
  BEX1 fc: −0.2346
Refseq NM_018656.2
  SLC35E3 fc: 0.4619
Refseq NM_018661.3
  DEFB103B expression fc: −0.03507
Refseq NM_018837.2
  fc of SULF2 (expression array): −0.04817
Refseq NM_018945.3
  PDE7B fc: −0.5695
Refseq NM_018946.2
  NANS expression fc: −0.006607
Refseq NM_019014.3
  POLR1B expression fc: −0.1313
Refseq NM_019084.2
  CCNJ expression fc: 0.07916
Refseq NM_019102.2
  fc of HOXA5 (expression array): −0.1759
Refseq NM_020143.2
  PNO1 expression fc: 0.2485
Refseq NM_020231.3
  KTELC1 fc: 0.1564
Refseq NM_020317.3
  C1orf63 expression fc: −0.139
Refseq NM_020338.2
  ZMIZ1 fc: −0.03787
Refseq NM_020358.2
  TRIM49 expression fc: −0.01703
Refseq NM_020424.2
  LYRM1 fc: 0.01491
Refseq NM_020428.2
  SLC44A2 fc: −0.3457
Refseq NM_020528.1
  PCBP3 fc: 0.2113
Refseq NM_020529.1, cultured human skeletal muscle
  NFKBIA expression fc: 0.2751
Refseq NM_020650.2
  fc of RCN3 (expression array): −0.2021
Refseq NM_020651.2
  PELI1 expression fc: 0.1483
Refseq NM_020728.1
  fc of FAM62B (expression array): −1.387
Refseq NM_020760.1
  HECW2 fc: 0.06016
Refseq NM_020807.1
  ZNF319 fc: −0.08179
Refseq NM_020841.4
  OSBPL8 expression fc: 1.055
Refseq NM_020903.2
  USP29 expression fc: −0.09046
Refseq NM_020914.3
  fc of RNF213 (expression array): 0.6308
Refseq NM_020940.3
  fc of FAM160B1 (expression array): 0.6282
Refseq NM_020962.1
  fc of IGDCC4 (expression array): −0.5216
Refseq NM_021026.2
  RFPL1 expression fc: 0.3402
